These results are taken from US20130177981A1.

The target in assay [1] is T1, Mcl-1, Q07820.
T1 chain: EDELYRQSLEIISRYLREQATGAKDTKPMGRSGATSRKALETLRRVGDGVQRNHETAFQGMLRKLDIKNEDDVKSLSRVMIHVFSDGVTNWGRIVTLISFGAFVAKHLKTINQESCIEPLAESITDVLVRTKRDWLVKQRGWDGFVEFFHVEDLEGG
Description: direct-binding FP with the BODIPY-labeled analogue.

The target of a further assay is Bcl-xL, Q07817. Description: direct-binding FP with the BODIPY-labeled analogue.
Assay [2] concerns the target T1, Mcl-1, Q07820. The experiment in a line: competition FP; displacement of the labeled Bak BH3 peptide.

Bcl-xL, Q07817, sequence (Q07817 1-209): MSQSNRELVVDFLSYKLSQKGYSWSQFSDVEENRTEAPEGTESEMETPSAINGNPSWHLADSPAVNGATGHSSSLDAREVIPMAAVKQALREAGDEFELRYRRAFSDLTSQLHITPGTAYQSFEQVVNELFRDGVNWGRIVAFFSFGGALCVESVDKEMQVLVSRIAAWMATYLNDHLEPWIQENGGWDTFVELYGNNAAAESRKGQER

Regarding EEQWAREIGAQLRRMADDLNAQYERR (peptide, UniProt Q9BXH1 130-155, looked up, modifications not checked) [BODIPY-TMR-labeled analog of Puma BH3 α/β-peptide 4′, Q9BXH1 130-155], the Kd (commonly the equilibrium constant for the complex coming apart) with Mcl-1, Q07820 [1] amounted to 110 nM; in the assay with Bcl-xL, Q07817 it was 2.2 nM.
Regarding EEQWAREIGAQLRRMADDLNAQYERR (peptide, UniProt Q9BXH1 130-155, looked up, modifications not checked) [Puma BH3 α-peptide 1′, Q9BXH1 130-155], the Ki (as a rule, the dissociation constant of the complex between target and ligand, obtained from inhibition or displacement) with Mcl-1, Q07820 [2] is less than 10 nM.
As for EEQWAREIGAQLRRMADDLNAQYERR (peptide, UniProt Q9BXH1 130-155, looked up, modifications not checked) [BODIPY-TMR-labeled analog of Puma BH3 α-peptide 1′, Q9BXH1 130-155], the Kd in the assay with Mcl-1, Q07820 [1] is less than 2 nM.
